According to patent publication US6333311, “Useful properties of human lactoferrin and variants thereof” (Pharming, dated 2001):

B1: human lysozyme (enzyme)
chain: KVFERCELARTLKRLGMDGYRGISLANWMCLAKWESGYNTRATNYNAGDRSTDYGIFQINSRYWCNDGKTPGAVNACHLSCSALLQDNIADAVACAKRVVRDPQGIRAWVAWRNRCQNRDVRQYVQGCGV
B2: natural human lactoferrin (ligand)
chain: GRRRRSVQWCAVSQPEATKCFQWQRNMRKVRGPPVSCIKRDSPIQCIQAIAENRADAVTLDGGFIYEAGLAPYKLRPVAAEVYGTERQPRTHYYAVAVVKKGGSFQLNELQGLKSCHTGLRRTAGWNVPIGTLRPFLNWTGPPEPIEAAVARFFSASCVPGADKGQFPNLCRLCAGTGENKCAFSSQEPYFSYSGAFKCLRDGAGDVAFIRESTVFEDLSDEAERDEYELLCPDNTRKPVDKFKDCHLARVPSHAVVARSVNGKEDAIWNLLRQAQEKFGKDKSPKFQLFGSPSGQKDLLFKDSAIGFSRVPPRIDSGLYLGSGYFTAIQNLRKSEEEVAARRARVVWCAVGEQELRKCNQWSGLSEGSVTCSSASTTEDCIALVLKGEADAMSLDGGYVYTAGKCGLVPVLAENYKSQQSSDPDPNCVDRPVEGYLAVAVVRRSDTSLTWNSVKGKKSCHTAVDRTAGWNIPMGLLFNQTGSCKFDEYFSQSCAPGSDPRSNLCALCIGDEQGENKCVPNSNERYYGYTGAFRCLAENAGDVAFVKDVTVLQNTDGNNNEAWAKDLKLADFALLCLDGKRKPVTEARSCHLAMAPNHAVVSRMDKVERLKQVLLHQQAKFGRNGSDCPDKFCLFQSETKNLLFNDNTECLARLHGKTTYEKYLGPQYVAGITNLKKCSTSPLLEACEFLRK

Experiments:
[1] = biological target: human transferrin (human, UniProt P02787); test: competitive ELISA: hTF as competitor of 12.5 nM biotinylated hLF on hLZ-coated plates
[2] = biological target: B2; test: solid-phase ligand binding ELISA, hLZ-coated plates
[3] = biological target: B1; test: competitive ELISA: unlabelled competitor against 12.5 nM biotinylated hLF on hLZ-coated plates

Binder	binding result [1]	binding result [2]	IC50 [3] [nM]
B1	no binding	binds	
B2			11.2
iron-saturated human lactoferrin (ligand) GRRRRSVQWCAVSQPEATKCFQWQRNMRKVRGPPVSCIKRDSPIQCIQAIAENRADAVTLDGGFIYEAGLAPYKLRPVAAEVYGTERQPRTHYYAVAVVKKGGSFQLNELQGLKSCHTGLRRTAGWNVPIGTLRPFLNWTGPPEPIEAAVARFFSASCVPGADKGQFPNLCRLCAGTGENKCAFSSQEPYFSYSGAFKCLRDGAGDVAFIRESTVFEDLSDEAERDEYELLCPDNTRKPVDKFKDCHLARVPSHAVVARSVNGKEDAIWNLLRQAQEKFGKDKSPKFQLFGSPSGQKDLLFKDSAIGFSRVPPRIDSGLYLGSGYFTAIQNLRKSEEEVAARRARVVWCAVGEQELRKCNQWSGLSEGSVTCSSASTTEDCIALVLKGEADAMSLDGGYVYTAGKCGLVPVLAENYKSQQSSDPDPNCVDRPVEGYLAVAVVRRSDTSLTWNSVKGKKSCHTAVDRTAGWNIPMGLLFNQTGSCKFDEYFSQSCAPGSDPRSNLCALCIGDEQGENKCVPNSNERYYGYTGAFRCLAENAGDVAFVKDVTVLQNTDGNNNEAWAKDLKLADFALLCLDGKRKPVTEARSCHLAMAPNHAVVSRMDKVERLKQVLLHQQAKFGRNGSDCPDKFCLFQSETKNLLFNDNTECLARLHGKTTYEKYLGPQYVAGITNLKKCSTSPLLEACEFLRK			15.4
